Laboratory results published in article doi:10.1101/2021.06.08.447555 (bioRxiv, 2021).

Biological target: the molecule itself
Experiment: SEC

B1: His6-eVP40 (Ebola virus matrix protein VP40) (natural protein)
chain: MRRVILPTAPPEYMEAIYPVRSNSTIARGGNSNTGFLTPESVNGDTPSNPLRPIADDTIDHASHTPGSVSSAFILEAMVNVISGPKVLMKQIPIWLPLGVADQKTYSFDSTTAAIMLASYTITHFGKATNPLVRVNRLGPGIPDHPLRLLRIGNQAFLQEFVLPPVQLPQYFTFDLTALKLITQPLPAATWTDDTPTGSNGALRPGISFHPKLRPILLPNKSGKKGNSADLTSPEKIQAIMTSLQDFKIVPIDPTKNIMGIEVPETLVHKLTGKKVTSKNGQPIIPVLLPKYIGLDPVAPGDLTMVITQDCDTCHSPASLPAVIEK
  stoichiometry N: 2
